From publication PMC12020772 (Journal for Immunotherapy of Cancer, 2025)

B1: Fab fragment of CLN-619 (Fab, V domains shown)
VH: QVQLVESGGGLVKPGGSLRLSCAASGFTFSNYAMSWIRQAPGKGLEWVSYISPGGDYIYYADSVKGRFTISRDNAKNSLYLQMNSLRAEDTAVYYCTTDRRHYGSYAMDYWGQGTLVTVSS
VL: DIVMTQSPLSLPVTPGEPASISCRSSKSLLHSNLNTYLYWFLQKPGQSPQILIYRMSNLASGVPDRFSGSGSGTAFTLKISRVEAEDVGVYYCMQHLEYPFTFGPGTKLEIK
B2: CLN-619, humanized IgG1 monoclonal antibody against MICA/B (antibody, V domains shown)
VH: B1 VH
VL: B1 VL

Columns and labels:
[1] = target: MICA alpha-3 domain of MICA*001 (Homo sapiens, allele MICA*001, UniProt Q29983, strain); assay: crystal structure
[2] = target: MICA*001 extracellular domain (Homo sapiens, allele MICA*001, UniProt Q29983); assay: ELISA
[3] = target: MICA*002 extracellular domain (Homo sapiens, allele MICA*002 (stand-in …, UniProt Q29983)); assay: ELISA
[4] = target: MICB*004 extracellular domain (Homo sapiens, allele MICB*004, UniProt Q29980); assay: BLI

| Binder | binding result [1] | binding result [2] | binding result [3] | Kd [4] |
| --- | --- | --- | --- | --- |
| B1 | binds | – | – | – |
| B2 | – | binds | binds | 11.4 nM |
